In patent CN113683697A (SHANGHAI XIANGYAO BIOTECHNOLOGY CO LTD, dated 2021):

T1: B7-H3 (4Ig-B7-H3) endogenously expressed on MDA-MB-231 cells (UniProt Q5ZPR3 29-534, limits assumed)
T1 construct: whole, on cells; also called 细胞表面的B7-H3抗原
T1 sequence (looked up): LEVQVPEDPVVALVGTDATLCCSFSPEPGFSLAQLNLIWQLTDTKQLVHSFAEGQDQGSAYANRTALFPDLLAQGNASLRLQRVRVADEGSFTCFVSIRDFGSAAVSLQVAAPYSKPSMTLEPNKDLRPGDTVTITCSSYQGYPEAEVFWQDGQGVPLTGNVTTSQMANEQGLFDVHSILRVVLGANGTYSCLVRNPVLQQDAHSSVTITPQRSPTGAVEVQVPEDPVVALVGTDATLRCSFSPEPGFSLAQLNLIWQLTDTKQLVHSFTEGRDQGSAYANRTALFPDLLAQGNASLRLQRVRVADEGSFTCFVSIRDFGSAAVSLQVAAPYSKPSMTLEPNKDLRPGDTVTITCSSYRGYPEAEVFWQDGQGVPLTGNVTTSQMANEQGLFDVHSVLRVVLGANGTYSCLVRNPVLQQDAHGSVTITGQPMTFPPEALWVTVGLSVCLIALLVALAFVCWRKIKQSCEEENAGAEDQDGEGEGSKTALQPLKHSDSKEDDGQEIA

T2: 人B7-H3变体1(4Ig-B7-H3) on stable cells 293-h4Ig-B7-H3-copGFP (human, UniProt Q5ZPR3 29-534)
T2 construct: Full-length CDS cloned in pCDH-EF1-T2A-copGFP and expressed on stably transduced cells; residues left by T2A cleavage not described
T2 sequence: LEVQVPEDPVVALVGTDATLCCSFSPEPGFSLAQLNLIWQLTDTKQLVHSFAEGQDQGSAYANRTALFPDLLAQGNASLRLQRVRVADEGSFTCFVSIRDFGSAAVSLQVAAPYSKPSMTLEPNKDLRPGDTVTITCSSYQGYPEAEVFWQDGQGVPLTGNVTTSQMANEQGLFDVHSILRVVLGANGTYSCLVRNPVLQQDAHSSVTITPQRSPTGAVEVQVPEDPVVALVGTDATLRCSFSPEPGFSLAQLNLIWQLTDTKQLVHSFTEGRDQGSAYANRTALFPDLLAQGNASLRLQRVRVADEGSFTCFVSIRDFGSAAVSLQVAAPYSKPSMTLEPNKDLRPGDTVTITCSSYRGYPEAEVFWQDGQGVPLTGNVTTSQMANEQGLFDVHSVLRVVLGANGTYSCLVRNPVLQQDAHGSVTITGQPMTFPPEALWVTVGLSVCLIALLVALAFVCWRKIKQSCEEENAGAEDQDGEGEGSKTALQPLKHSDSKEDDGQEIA


Tests used:
[1] = molecular target: T1, B7-H3 (4Ig-B7-H3) endogenously …; test: FACS, MDA-MB-231 cells
[2] = molecular target: T2, 人B7-H3变体1(4Ig-B7-H3) on stable cells …; test: FACS, 293-h4Ig-B7-H3-copGFP stable cells
[3] = molecular target: T1, B7-H3 (4Ig-B7-H3) endogenously …; test: FACS titration on MDA-MB-231 cells

Binder | binding result [1] | binding result [2] | EC50 [3]
scFv-27B4-H4-L5 (scFv, VH-linker-VL in phage display vector pXY, expressed in TG1, purified on a nickel column) scFv: EVQLVQSGAEVKKPGESLKISCKASGYTFTTYWIGWVRQMPGKGLEWMGIIYPGDGGSRYSPSFQGQVTISADKSISTAYLQWSSLKASDTAMYYCARGGNYISFPMYYWGQGTLVTVSSGGGGSGGGGSGGGGSGGGGASDIVMTQTPLSLSVTPGQPASISCKASRGVSTALYWYLQKPGQPPQLLIYWASNRFSGVPDRFSGSGSGTDFTLKISRVEAEDVGVYYCQQHYDTPYTFGQGTKLEIK | binds | binds | 
MGA-271 (NCT02475213) (antibody, V domains shown) VH: EVQLVESGGGLVQPGGSLRLSCAASGFTFSSFGMHWVRQAPGKGLEWVAYISSDSSAIYYADTVKGRFTISRDNAKNSLYLQMNSLRDEDTAVYYCGRGRENIYYGSRLDYWGQGTTVTVSS VL: DIQLTQSPSFLSASVGDRVTITCKASQNVDTNVAWYQQKPGKAPKALIYSASYRYSGVPSRFSGSGSGTDFTLTISSLQPEDFATYYCQQYNNYPFTFGQGTKLEIK |  |  | 23.8 µg/mL
scFv-27B4-H5-L3 (scFv, VH-linker-VL in phage display vector pXY, expressed in TG1, purified on a nickel column) scFv: QVQLVESGGGVVQPGRSLRLSCKASGYTFTTYWMHWVRQAPGKGLEWVAVIYPGDGGSYYTDSVKGRFTISRDNSKNTLYLQMNSLRAEDTAVYYCARGGNYISFPMYYWGQGTLVTVSSGGGGSGGGGSGGGGSGGGGASEIVMTQSPATLSVSPGERATLSCKASRGVSTALAWYQQKPGQAPRLLIYWASTRATGIPARFSGSGSGTEFTLTISSLQSEDFAVYYCQQHYDTPYTFGQGTKLEIK | binds | binds | 
嵌合抗体xw.M0883B9.27B4 (antibody, human IgG1, kappa, V domains shown, also called 嵌合抗体27B4; 27B4嵌合抗体) VH: QVQLQQSGAELARPGASVKLSCKASGYTFTTYWMQWIQQRPGQGLEWIGAIYPGDGGSRYTQRFKGKATMTADPSSSTVYMQLTSLASEDSAVYFCARGGNYISFPMYYWGQGTSVTVSP VL: DIVMTQSHKFMSTSVGDRVSITCKASRGVSTAVAWYQQKPGQSPKLLIYWASTRHTGVPDRFTGSGSGTDYTLTISSVQAEDLALYYCQQHYDTPYTFGGGTKLEIQR |  |  | 3.2 µg/mL
h27B4-H4-L3 (antibody, human IgG1, kappa, V domains shown, Whole IgG, humanized; optimized hIgG1 (L235V, F243L, R292P, Y300L, P396L) and human kappa; also called zw.M0883B9.27B4Z02; 27B4Z02分子) VH: EVQLVQSGAEVKKPGESLKISCKASGYTFTTYWIGWVRQMPGKGLEWMGIIYPGDGGSRYSPSFQGQVTISADKSISTAYLQWSSLKASDTAMYYCARGGNYISFPMYYWGQGTLVTVSS VL: EIVMTQSPATLSVSPGERATLSCKASRGVSTALAWYQQKPGQAPRLLIYWASTRATGIPARFSGSGSGTEFTLTISSLQSEDFAVYYCQQHYDTPYTFGQGTKLEIKR | binds | binds | 
scFv-27B4-H4-L4 (scFv, VH-linker-VL in phage display vector pXY, expressed in TG1, purified on a nickel column) scFv: EVQLVQSGAEVKKPGESLKISCKASGYTFTTYWIGWVRQMPGKGLEWMGIIYPGDGGSRYSPSFQGQVTISADKSISTAYLQWSSLKASDTAMYYCARGGNYISFPMYYWGQGTLVTVSSGGGGSGGGGSGGGGSGGGGASEIVLTQSPDFQSVTPKEKVTITCKASRGVSTALHWYQQKPDQSPKLLIKWASQSFSGVPSRFSGSGSGTDFTLTINSLEAEDAATYYCQQHYDTPYTFGQGTKLEIK | binds | binds | 
scFv-27B4-H4-L3 (scFv, Expressed from phage display vector pXY in TG1, purified on a nickel column) scFv: EVQLVQSGAEVKKPGESLKISCKASGYTFTTYWIGWVRQMPGKGLEWMGIIYPGDGGSRYSPSFQGQVTISADKSISTAYLQWSSLKASDTAMYYCARGGNYISFPMYYWGQGTLVTVSSGGGGSGGGGSGGGGSGGGGASEIVMTQSPATLSVSPGERATLSCKASRGVSTALAWYQQKPGQAPRLLIYWASTRATGIPARFSGSGSGTEFTLTISSLQSEDFAVYYCQQHYDTPYTFGQGTKLEIK | binds | binds | 
scFv-27B4-H5-L5 (scFv, VH-linker-VL in phage display vector pXY, expressed in TG1, purified on a nickel column) scFv: QVQLVESGGGVVQPGRSLRLSCKASGYTFTTYWMHWVRQAPGKGLEWVAVIYPGDGGSYYTDSVKGRFTISRDNSKNTLYLQMNSLRAEDTAVYYCARGGNYISFPMYYWGQGTLVTVSSGGGGSGGGGSGGGGSGGGGASDIVMTQTPLSLSVTPGQPASISCKASRGVSTALYWYLQKPGQPPQLLIYWASNRFSGVPDRFSGSGSGTDFTLKISRVEAEDVGVYYCQQHYDTPYTFGQGTKLEIK | binds | binds | 
scFv-27B4-H5-L1 (scFv, VH-linker-VL in phage display vector pXY, expressed in TG1, purified on a nickel column) scFv: QVQLVESGGGVVQPGRSLRLSCKASGYTFTTYWMHWVRQAPGKGLEWVAVIYPGDGGSYYTDSVKGRFTISRDNSKNTLYLQMNSLRAEDTAVYYCARGGNYISFPMYYWGQGTLVTVSSGGGGSGGGGSGGGGSGGGGASDIQMTQSPSSLSASMGDRVTITCKASRGVSTALNWYQQKPGKAPKLLIYWASSLQSGVPSRFSGSGSGTDFTLTISSLQPEDFATYYCQQHYDTPYTFGQGTKLEIK | binds | binds | 
scFv-27B4-H5-L2 (scFv, VH-linker-VL in phage display vector pXY, expressed in TG1, purified on a nickel column) scFv: QVQLVESGGGVVQPGRSLRLSCKASGYTFTTYWMHWVRQAPGKGLEWVAVIYPGDGGSYYTDSVKGRFTISRDNSKNTLYLQMNSLRAEDTAVYYCARGGNYISFPMYYWGQGTLVTVSSGGGGSGGGGSGGGGSGGGGASVIWMTQSPSLLSASTGDRVTISCKASRGVSTALAWYQQKPGKAPELLIYWASTLQSGVPSRFSGSGSGTDFTLTISCLQSEDFATYYCQQHYDTPYTFGQGTKLEIK | binds | binds | 
h27B4-H2-L2 (antibody, human IgG1, kappa, V domains shown, Whole IgG, humanized; optimized hIgG1 (L235V, F243L, R292P, Y300L, P396L) and human kappa; also called zw.M0883B9.27B4Z01) VH: QVQLVQSGAEVKKPGSSVKVSCKASGYTFTTYWISWVRQAPGQGLEWMGGIYPGDGGSNYAQKFQGRVTITADESTSTAYMELSSLRSEDTAVYYCARGGNYISFPMYYWGQGTLVTVSS VL: VIWMTQSPSLLSASTGDRVTISCKASRGVSTALAWYQQKPGKAPELLIYWASTLQSGVPSRFSGSGSGTDFTLTISCLQSEDFATYYCQQHYDTPYTFGQGTKLEIKR | binds | binds | 
h27B4-H2-L3 (antibody, human IgG1, kappa, V domains shown, Whole IgG, humanized; optimized hIgG1 (L235V, F243L, R292P, Y300L, P396L) and human kappa; also called zw.M0883B9.27B4Z03) VH: QVQLVQSGAEVKKPGSSVKVSCKASGYTFTTYWISWVRQAPGQGLEWMGGIYPGDGGSNYAQKFQGRVTITADESTSTAYMELSSLRSEDTAVYYCARGGNYISFPMYYWGQGTLVTVSS VL: EIVMTQSPATLSVSPGERATLSCKASRGVSTALAWYQQKPGQAPRLLIYWASTRATGIPARFSGSGSGTEFTLTISSLQSEDFAVYYCQQHYDTPYTFGQGTKLEIKR | binds | binds | 
h27B4-H4-L2 (antibody, human IgG1, kappa, V domains shown, Whole IgG, humanized; optimized hIgG1 (L235V, F243L, R292P, Y300L, P396L) and human kappa; also called zw.M0883B9.27B4Z04) VH: EVQLVQSGAEVKKPGESLKISCKASGYTFTTYWIGWVRQMPGKGLEWMGIIYPGDGGSRYSPSFQGQVTISADKSISTAYLQWSSLKASDTAMYYCARGGNYISFPMYYWGQGTLVTVSS VL: VIWMTQSPSLLSASTGDRVTISCKASRGVSTALAWYQQKPGKAPELLIYWASTLQSGVPSRFSGSGSGTDFTLTISCLQSEDFATYYCQQHYDTPYTFGQGTKLEIKR | binds | binds | 
scFv-27B4-H5-L4 (scFv, VH-linker-VL in phage display vector pXY, expressed in TG1, purified on a nickel column) scFv: QVQLVESGGGVVQPGRSLRLSCKASGYTFTTYWMHWVRQAPGKGLEWVAVIYPGDGGSYYTDSVKGRFTISRDNSKNTLYLQMNSLRAEDTAVYYCARGGNYISFPMYYWGQGTLVTVSSGGGGSGGGGSGGGGSGGGGASEIVLTQSPDFQSVTPKEKVTITCKASRGVSTALHWYQQKPDQSPKLLIKWASQSFSGVPSRFSGSGSGTDFTLTINSLEAEDAATYYCQQHYDTPYTFGQGTKLEIK | binds | binds | 
